The values that follow come from the RNAGym collection of RNA variant scans (doi:10.7554/elife.90254).

Sequences and labels used below:
B1: LINE1-mini (parent)
chain: GGCAGAGCUCAACACAGCGUGGCAAAGUGGCUGUGGCUAGACUGCC

In this series the parent is B1. The experiment in a line: self-cleavage, relative activity (ratio to wild type); higher = more cleavage; in vitro, sequencing; the parent is a self-cleaving ribozyme.
For the variant GGCAGAGCUCAACACAGCGUUGCACAGUGGCUGUGGCUAGACUGCC [G21U A25C], the self-cleavage is 1.44.
For the variant GGCAGAGCUCAACACAGCGUUGCAGAGUGGCUGUGGCUAGACUGCC [G21U A25G], the self-cleavage came out at 1.23.
As for GGCAGAGCUCAACACAGCGUUGCAUAGUGGCUGUGGCUAGACUGCC [G21U A25U], the self-cleavage stood at 1.88.
In the case of GGCAGAGCUCAACACAGCGUCGCAAAGUGGCUGUGGCUAGACAGCC [G21C U43A] it was 0.07.
Regarding GGCAGAGCUCAACACAGCGUCGCAAAGUGGCUGUGGCUAGACGGCC [G21C U43G], the self-cleavage turned out to be 0.02.
In the case of GGCAGAGCUCAACACAGCGUCGCAAAGUGGCUGUGGCUAGACCGCC [G21C U43C] it was 0.06; in that of GGCAGAGCUCAACACAGCGUUGCAAAGUGCCUGUGGCUAGACUGCC [G21U G30C], 2.18.
As to GGCAGAGCUCAACACAGCGUUGCAAAGUGUCUGUGGCUAGACUGCC [G21U G30U], the self-cleavage came to 1.
For GGCAGAGCUCAACACAGCGUUGCAAAGUGACUGUGGCUAGACUGCC [G21U G30A], the self-cleavage was 1.81.
In the case of GGCAGAGCUCAACACAGCGUCGCAAAGUGGCUGUGGCUGGACUGCC [G21C A39G] it was 0.05.
In the case of GGCAGAGCUCAACACAGCGUCGCAAAGUGGCUGUGGCUUGACUGCC [G21C A39U] it was 0.81; in that of GGCAGAGCUCAACACAGCGUCGCAAAGUGGCUGUGGCUAGAAUGCC [G21C C42A], 0.19; in that of GGCAGAGCUCAACACAGCGUCGCAAAGUGGCUGUGGCUAGAUUGCC [G21C C42U], 0.36.
As for GGCAGAGCUCAACACAGCGUCGCAAAGUUGCUGUGGCUAGACUGCC [G21C G29U], the self-cleavage stood at 0.48.
With GGCAGAGCUCAACACAGCGUCGCAAAGUCGCUGUGGCUAGACUGCC [G21C G29C], the self-cleavage is 0.55.
For the variant GGCAGAGCUCAACACAGCGUCGCAAAGUAGCUGUGGCUAGACUGCC [G21C G29A], the self-cleavage was 0.5.
GGCAGAGCUCAACACAGCGUCGCAAAGUGGCUGUGGCUAAACUGCC [G21C G40A]: the self-cleavage was 0.04.
Turning to GGCAGAGCUCAACACAGCGUCGCAAAGUGGCUGUGGCUAUACUGCC [G21C G40U], the self-cleavage is 0.15.
On to GGCAGAGCUCAACACAGCGUCGCAAAGUGGCUGUGGCUACACUGCC [G21C G40C], for which the self-cleavage is 0.07.
Take GGCAGAGCUCAACACAGCGUCGCAAAGUGGCUGCGGCUAGACUGCC [G21C U34C]: the self-cleavage came out at 0.19.
Regarding GGCAGAGCUCAACACAGCGUCGCAAAGUGGCUGGGGCUAGACUGCC [G21C U34G], the self-cleavage amounted to 0.24.
Consider GGCAGAGCUCAACACAGCGUCGCAAAGUGGCUGAGGCUAGACUGCC [G21C U34A], for which the self-cleavage amounted to 0.12.
In the case of GGCAGAGCUCAACACAGCGUUGCAAAGUGGCUGUGGCUAGACUGUC [G21U C45U], the self-cleavage stood at 1.62.
In the case of GGCAGAGCUCAACACAGCGUUGCAAAGUGGCUGUGGCUAGACUGAC [G21U C45A], the self-cleavage is 0.68.
As for GGCAGAGCUCAACACAGCGUUGCAAAGUGGCUGUGGCUAGACUGGC [G21U C45G], the self-cleavage was found to be 0.18.
For GGCAGAGCUCAACACAGCGUUGCAAAGUAGCUGUGGCUAGACUGCC [G21U G29A], the self-cleavage amounted to 0.63.
In the case of GGCAGAGCUCAACACAGCGUUGCAAAGUCGCUGUGGCUAGACUGCC [G21U G29C], the self-cleavage stood at 0.4.
In the case of GGCAGAGCUCAACACAGCGUUGCAAAGUUGCUGUGGCUAGACUGCC [G21U G29U], the self-cleavage was determined as 0.55.
Take GGCAGAGCUCAACACAGCGUUGCAAAGUGGCUGUGGGUAGACUGCC [G21U C37G]: the self-cleavage was found to be 0.04.
With GGCAGAGCUCAACACAGCGUUGCAAAGUGGCUGUGGUUAGACUGCC [G21U C37U], the self-cleavage stood at 0.06.
Turning to GGCAGAGCUCAACACAGCGUUGCAAAGUGGCUGUGGAUAGACUGCC [G21U C37A], the self-cleavage was 0.09.
In the case of GGCAGAGCUCAACACAGCGUCGAAAAGUGGCUGUGGCUAGACUGCC [G21C C23A] it was 0.43; in that of GGCAGAGCUCAACACAGCGUCGGAAAGUGGCUGUGGCUAGACUGCC [G21C C23G], 0.53; in that of GGCAGAGCUCAACACAGCGUCGUAAAGUGGCUGUGGCUAGACUGCC [G21C C23U], 1.27.
With GGCAGAGCUCAACACAGCGUCGCAAAGUGGCUGUGGCCAGACUGCC [G21C U38C], the self-cleavage is 0.48.
As for GGCAGAGCUCAACACAGCGUCGCAAAGUGGCUGUGGCAAGACUGCC [G21C U38A], the self-cleavage amounted to 0.21.
Take GGCAGAGCUCAACACAGCGUCGCAAAGUGGCUGUGGCGAGACUGCC [G21C U38G]: the self-cleavage is 0.02.
Under GGCAGAGCUCAACACAGCGUCGCAAAGUGGCUAUGGCUAGACUGCC [G21C G33A] stands 0.8; under GGCAGAGCUCAACACAGCGUCGCAAAGUGGCUUUGGCUAGACUGCC [G21C G33U], 0.11; under GGCAGAGCUCAACACAGCGUCGCAAAGUGGCUCUGGCUAGACUGCC [G21C G33C], 0.05.
In the case of GGCAGAGCUCAACACAGCGUCGCAAAGUGGCUGUCGCUAGACUGCC [G21C G35C], the self-cleavage is 0.08.
Consider GGCAGAGCUCAACACAGCGUCGCAAAGUGGCUGUAGCUAGACUGCC [G21C G35A], for which the self-cleavage came to 0.16.
For GGCAGAGCUCAACACAGCGUCGCAAAGUGGCUGUUGCUAGACUGCC [G21C G35U], the self-cleavage was 0.16.
In the case of GGCAGAGCUCAACACAGCGUUGCAAAGUGGUUGUGGCUAGACUGCC [G21U C31U] it was 0.3.
Regarding GGCAGAGCUCAACACAGCGUUGCAAAGUGGGUGUGGCUAGACUGCC [G21U C31G], the self-cleavage is 0.08.
On to GGCAGAGCUCAACACAGCGUUGCAAAGUGGAUGUGGCUAGACUGCC [G21U C31A], for which the self-cleavage was 0.19.
Regarding GGCAGAGCUCAACACAGCGUCGCAAAGUGGAUGUGGCUAGACUGCC [G21C C31A], the self-cleavage was found to be 0.19.
On to GGCAGAGCUCAACACAGCGUCGCAAAGUGGUUGUGGCUAGACUGCC [G21C C31U], for which the self-cleavage is 0.3.
GGCAGAGCUCAACACAGCGUCGCAAAGUGGGUGUGGCUAGACUGCC [G21C C31G]: the self-cleavage worked out at 0.09.
Consider GGCAGAGCUCAACACAGCGUUGCAAAGUGGCUGUGGCUAGGCUGCC [G21U A41G], for which the self-cleavage was found to be 0.28.
Take GGCAGAGCUCAACACAGCGUUGCAAAGUGGCUGUGGCUAGCCUGCC [G21U A41C]: the self-cleavage came out at 0.06.
Turning to GGCAGAGCUCAACACAGCGUUGCAAAGUGGCUGUGGCUAGUCUGCC [G21U A41U], the self-cleavage turned out to be 0.9.
GGCAGAGCUCAACACAGCGUUGCAACGUGGCUGUGGCUAGACUGCC [G21U A26C]: the self-cleavage turned out to be 1.29.
Turning to GGCAGAGCUCAACACAGCGUUGCAAUGUGGCUGUGGCUAGACUGCC [G21U A26U], the self-cleavage came to 1.93.
On to GGCAGAGCUCAACACAGCGUUGCAAGGUGGCUGUGGCUAGACUGCC [G21U A26G], for which the self-cleavage was 1.29.
Regarding GGCAGAGCUCAACACAGCGUCGCAAAGUGGCUGUGGCUAGACUGAC [G21C C45A], the self-cleavage amounted to 0.49.
